One data set has as its system D. ficus RecA (D. ficus). The experiment in a line: PIFE (Cy3 fluorescence enhancement). The note with it: 1 nM DNA; HDGF assays: 46 mM NaCl, 0.9 mM KCl, 3.3 mM Na2HPO4, 0.66 mM KH2PO4, pH 7.4; at least 1 h on ice; 1-10 nM Cy3 DNA, 10 pM-100 nM protein; RecA dsDNA control at ….
The target of the next data set is E. coli RecA (E. coli, UniProt P0A7G6 2-353). The experiment in a line: PIFE (Cy3 fluorescence enhancement); 1 nM DNA; approximation model; HDGF assays: 46 mM NaCl, 0.9 mM KCl, 3.3 mM Na2HPO4, 0.66 mM KH2PO4, pH 7.4; at least 1 h on ice; 1-10 nM Cy3 DNA, 10 pM-100 nM protein; RecA dsDNA control at pH 7.5. The note with it: label: Cy3.
Sequence of E. coli RecA (P0A7G6 2-353): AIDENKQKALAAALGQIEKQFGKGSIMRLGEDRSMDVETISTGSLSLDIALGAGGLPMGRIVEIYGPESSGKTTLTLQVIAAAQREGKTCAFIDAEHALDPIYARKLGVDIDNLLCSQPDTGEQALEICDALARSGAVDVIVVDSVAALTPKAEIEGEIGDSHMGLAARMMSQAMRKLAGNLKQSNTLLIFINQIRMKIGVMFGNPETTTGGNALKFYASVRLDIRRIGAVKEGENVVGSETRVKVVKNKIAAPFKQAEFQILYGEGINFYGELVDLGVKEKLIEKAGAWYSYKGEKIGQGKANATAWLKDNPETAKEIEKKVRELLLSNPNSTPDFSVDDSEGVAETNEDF
Data set [1] has as its target T1, HDGF (human, UniProt P51858 1-240). The data set is described as follows: PIFQ (Cy3 fluorescence quenching); 1 nM DNA; HDGF assays: 46 mM NaCl, 0.9 mM KCl, 3.3 mM Na2HPO4, 0.66 mM KH2PO4, pH 7.4; at least 1 h on ice; 1-10 nM Cy3 DNA, 10 pM-100 nM protein; RecA dsDNA control at pH 7.5. The note with it: protein: recombinant; label: 5' Cy3.
In data set [2] the target is T2, HDGF S103A (human, UniProt P51858 1-240, S103A). The description is as above. The note with it: protein: recombinant; label: 5' Cy3.
T2 sequence (P51858 whole entry S103A, the tested form may be a part): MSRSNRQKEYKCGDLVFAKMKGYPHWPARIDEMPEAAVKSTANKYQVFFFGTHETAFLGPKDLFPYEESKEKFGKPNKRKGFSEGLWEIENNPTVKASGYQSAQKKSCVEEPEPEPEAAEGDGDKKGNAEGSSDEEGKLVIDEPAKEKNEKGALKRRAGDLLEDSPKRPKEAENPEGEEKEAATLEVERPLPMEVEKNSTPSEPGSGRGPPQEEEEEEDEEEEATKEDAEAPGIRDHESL
The target in data set [3] is T3, HDGF C140 domain (human, UniProt P51858 101-240). The description is as above. The note with it: protein: recombinant.
T3 sequence (P51858 101-240): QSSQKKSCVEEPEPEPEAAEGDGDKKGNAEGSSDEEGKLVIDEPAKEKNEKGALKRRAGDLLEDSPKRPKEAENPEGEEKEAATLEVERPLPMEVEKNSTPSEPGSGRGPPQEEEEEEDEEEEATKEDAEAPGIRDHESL
Data set [4] concerns the target T4, HDGF PWWP domain (human, UniProt P51858 1-100). The experiment in a line: PIFQ (Cy3 fluorescence quenching); 1 nM DNA; Hill fit; HDGF assays: 46 mM NaCl, 0.9 mM KCl, 3.3 mM Na2HPO4, 0.66 mM KH2PO4, pH 7.4; at least 1 h on ice; 1-10 nM Cy3 DNA, 10 pM-100 nM protein; RecA dsDNA control at pH 7.5. The note with it: protein: recombinant; label: 5' Cy3.
Data set [5] concerns the target T5, HDGF PWWP domain;HDGF C140 domain (human;human, UniProt P51858;P51858 1-100;101-240, |). The data set is described as follows: PIFQ (Cy3 fluorescence quenching); 1 nM DNA; equal amounts premixed; Hill n=0.63; HDGF assays: 46 mM NaCl, 0.9 mM KCl, 3.3 mM Na2HPO4, 0.66 mM KH2PO4, pH 7.4; at least 1 h on ice; 1-10 nM Cy3 DNA, 10 pM-100 nM protein; RecA dsDNA control at pH 7.5. The note with it: protein: recombinant;recombinant; copies: 1;1; label: 5' Cy3.

The target of data set [6] is T1, HDGF. The data set is described as follows: PIFQ (Cy3 fluorescence quenching); 1 nM DNA; Hill fit (approximation model 0.017 nM); HDGF assays: 46 mM NaCl, 0.9 mM KCl, 3.3 mM Na2HPO4, 0.66 mM KH2PO4, pH 7.4; at least 1 h on ice; 1-10 nM Cy3 DNA, 10 pM-100 nM protein; RecA dsDNA control at pH 7.5. The note with it: protein: recombinant; label: 5' Cy3.
In data set [7] the target is T4, HDGF PWWP domain. The data set is described as follows: PIFQ (Cy3 fluorescence quenching); 5 nM DNA; approximation model; HDGF assays: 46 mM NaCl, 0.9 mM KCl, 3.3 mM Na2HPO4, 0.66 mM KH2PO4, pH 7.4; at least 1 h on ice; 1-10 nM Cy3 DNA, 10 pM-100 nM protein; RecA dsDNA control at pH 7.5. The note with it: protein: recombinant; label: 5' Cy3.
The target of data set [8] is T1, HDGF. The data set is described as follows: PIFQ (Cy3 fluorescence quenching); 5 nM DNA; Hill fit (approximation model 0.019 nM); HDGF assays: 46 mM NaCl, 0.9 mM KCl, 3.3 mM Na2HPO4, 0.66 mM KH2PO4, pH 7.4; at least 1 h on ice; 1-10 nM Cy3 DNA, 10 pM-100 nM protein; RecA dsDNA control at pH 7.5. The note with it: protein: recombinant; label: 5' Cy3.
In data set [9] the target is T2, HDGF S103A. The data set is described as follows: PIFQ (Cy3 fluorescence quenching); 1 nM DNA; Hill n=0.67; HDGF assays: 46 mM NaCl, 0.9 mM KCl, 3.3 mM Na2HPO4, 0.66 mM KH2PO4, pH 7.4; at least 1 h on ice; 1-10 nM Cy3 DNA, 10 pM-100 nM protein; RecA dsDNA control at pH 7.5. The note with it: protein: recombinant; label: 5' Cy3.
Data set [10] has as its target T4, HDGF PWWP domain. The experiment in a line: PIFQ (Cy3 fluorescence quenching); 1 nM DNA; n=1.00; HDGF assays: 46 mM NaCl, 0.9 mM KCl, 3.3 mM Na2HPO4, 0.66 mM KH2PO4, pH 7.4; at least 1 h on ice; 1-10 nM Cy3 DNA, 10 pM-100 nM protein; RecA dsDNA control at pH 7.5. The note with it: protein: recombinant; label: 5' Cy3.
For data set [11], the target named is T4, HDGF PWWP domain. The data set is described as follows: PIFQ (Cy3 fluorescence quenching); 10 nM DNA; approximation model; less reliable (protein depletion); HDGF assays: 46 mM NaCl, 0.9 mM KCl, 3.3 mM Na2HPO4, 0.66 mM KH2PO4, pH 7.4; at least 1 h on ice; 1-10 nM Cy3 DNA, 10 pM-100 nM protein; RecA dsDNA control at pH 7.5. The note with it: protein: recombinant; label: 5' Cy3.

Data set [12] addresses T3, HDGF C140 domain. The experiment in a line: PIFQ (Cy3 fluorescence quenching); 1 nM DNA; up to 100 nM protein; HDGF assays: 46 mM NaCl, 0.9 mM KCl, 3.3 mM Na2HPO4, 0.66 mM KH2PO4, pH 7.4; at least 1 h on ice; 1-10 nM Cy3 DNA, 10 pM-100 nM protein; RecA dsDNA control at pH 7.5. The note with it: protein: recombinant; label: 5' Cy3.
Data set [13] has as its target T1, HDGF. The data set is described as follows: PIFQ (Cy3 fluorescence quenching); 10 nM DNA; Hill fit (approximation model 0.031 nM); HDGF assays: 46 mM NaCl, 0.9 mM KCl, 3.3 mM Na2HPO4, 0.66 mM KH2PO4, pH 7.4; at least 1 h on ice; 1-10 nM Cy3 DNA, 10 pM-100 nM protein; RecA dsDNA control at pH 7.5. The note with it: protein: recombinant; label: 5' Cy3.
The target in data set [14] is T1, HDGF. The experiment in a line: PIFQ (Cy3 fluorescence quenching); 1 nM DNA; Hill n=0.60; unit not printed in legend; HDGF assays: 46 mM NaCl, 0.9 mM KCl, 3.3 mM Na2HPO4, 0.66 mM KH2PO4, pH 7.4; at least 1 h on ice; 1-10 nM Cy3 DNA, 10 pM-100 nM protein; RecA dsDNA control at pH 7.5. The note with it: protein: recombinant; label: 3' Cy3.
Data set [15] deals with T4, HDGF PWWP domain. The experiment in a line: PIFQ (Cy3 fluorescence quenching); 1 nM DNA; Hill n=1.0; unit not printed in legend; HDGF assays: 46 mM NaCl, 0.9 mM KCl, 3.3 mM Na2HPO4, 0.66 mM KH2PO4, pH 7.4; at least 1 h on ice; 1-10 nM Cy3 DNA, 10 pM-100 nM protein; RecA dsDNA control at pH 7.5. The note with it: protein: recombinant; label: 3' Cy3.
Data set [16] concerns the target T4, HDGF PWWP domain. The data set is described as follows: PIFQ (Cy3 fluorescence quenching); 1 nM DNA; Hill n=1.00; HDGF assays: 46 mM NaCl, 0.9 mM KCl, 3.3 mM Na2HPO4, 0.66 mM KH2PO4, pH 7.4; at least 1 h on ice; 1-10 nM Cy3 DNA, 10 pM-100 nM protein; RecA dsDNA control at pH 7.5. The note with it: protein: recombinant; label: Cy3.
Data set [17] addresses T1, HDGF. The experiment in a line: PIFQ (Cy3 fluorescence quenching); 1 nM DNA; Hill n=0.55; HDGF assays: 46 mM NaCl, 0.9 mM KCl, 3.3 mM Na2HPO4, 0.66 mM KH2PO4, pH 7.4; at least 1 h on ice; 1-10 nM Cy3 DNA, 10 pM-100 nM protein; RecA dsDNA control at pH 7.5. The note with it: protein: recombinant; label: Cy3.
The target in data set [18] is T5, HDGF PWWP domain;HDGF C140 domain. The experiment in a line: PIFQ (Cy3 fluorescence quenching); 1 nM DNA; equal amounts premixed; Hill n=0.50; HDGF assays: 46 mM NaCl, 0.9 mM KCl, 3.3 mM Na2HPO4, 0.66 mM KH2PO4, pH 7.4; at least 1 h on ice; 1-10 nM Cy3 DNA, 10 pM-100 nM protein; RecA dsDNA control at pH 7.5. The note with it: protein: recombinant;recombinant; copies: 1;1; label: Cy3.

The target in data set [19] is T2, HDGF S103A. The experiment in a line: PIFQ (Cy3 fluorescence quenching); 1 nM DNA; Hill n=0.50; HDGF assays: 46 mM NaCl, 0.9 mM KCl, 3.3 mM Na2HPO4, 0.66 mM KH2PO4, pH 7.4; at least 1 h on ice; 1-10 nM Cy3 DNA, 10 pM-100 nM protein; RecA dsDNA control at pH 7.5. The note with it: protein: recombinant; label: Cy3.

T4 sequence (P51858 1-100): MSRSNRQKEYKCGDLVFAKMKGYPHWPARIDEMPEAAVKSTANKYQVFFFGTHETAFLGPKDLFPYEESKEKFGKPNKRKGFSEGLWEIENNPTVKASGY
T1 sequence (P51858 whole entry): as the sequence (P51858 whole entry S103A, the tested form may be a part) above, with A103S counted along it
T5 sequence (P51858 1-100, chain 1 of 2): as the sequence (P51858 1-100) above
T5 sequence (P51858 101-240, chain 2 of 2): as the sequence (P51858 101-240) above

For “TTTTTTTTTTTTTTTTTTTTTTTTTTTTTTTTTTTTTTTT (double strand) [poly(T-A)40 dsDNA]”, the Kd in the data set on D. ficus RecA (D. ficus) amounted to 19 nM.
Same read-out and setting: with “TTTTTTTTTTTTTTTTTTTTTTTTTTTTTTTTTTTTTTTT [poly(dT)40 ssDNA]” the figure was 13.6 nM.
Regarding TTTTTTTTTTTTTTTTTTTTTTTTTTTTTTTTTTTTTTTT (ssDNA) [poly(dT)40 ssDNA], the Kd in the data set with E. coli RecA worked out at 34.5 ± 6.8 nM.

B1: poly(T-A)15 dsDNA (dsDNA)
DNA 1: TTTTTTTTTTTTTTT
DNA 2: AAAAAAAAAAAAAAA
As to B1, the binding result in the data set with HDGF [1], in the data set with HDGF S103A [2] and with HDGF C140 domain [3] (label: 5' Cy3) was “no binding” each time. In the data set with HDGF PWWP domain [4], the Kd is 1.6 ± 0.2 nM.

B2: 15 bp SMYD1 dsDNA (5' Cy3) (dsDNA)
DNA 1: TTCAAGACCAGCCTG
DNA 2: CAGGCTGGTCTTGAA
For B2, the Kd is 0.12 ± 0.04 nM in data set [5]; 0.095 ± 0.016 nM with HDGF [6]; approximately 1 nM in the data set with HDGF PWWP domain [7]; 0.085 ± 0.024 nM with HDGF [8]; 0.072 ± 0.003 nM with HDGF S103A [9]; 0.94 ± 0.1 nM in the data set with HDGF PWWP domain [10]. Besides, the values for the Kd in the data set with HDGF PWWP domain [11] and with HDGF [13] were 1.6 ± 0.2 nM and 0.076 ± 0.02 nM, respectively. The binding result with HDGF C140 domain [12] is on record as “no binding”.

B3: 15 bp SMYD1 dsDNA (3' Cy3) (dsDNA)
DNA 1: TTCAAGACCAGCCTG
DNA 2: CAGGCTGGTCTTGAA
In the case of B3, the Kd was 0.08 ± 0.004 nM with HDGF [14] and 1.4 ± 0.2 nM with HDGF PWWP domain [15].

B4: GC-rich dsDNA (dsDNA)
DNA 1: TCCTCGCTGCCGTCGGCCA
DNA 2: TGGCCGACGGCAGCGAGGA
Consider B4, for which the Kd with HDGF PWWP domain [16] amounted to 0.97 ± 0.19 nM; with HDGF [17], 0.25 ± 0.03 nM; in data set [18] it was 0.45 ± 0.06 nM; with HDGF S103A [19] it was 0.34 ± 0.06 nM. Also, the binding result with HDGF C140 domain [3] (label: Cy3) is “no binding”.

The Kd is a measure of binding affinity in units of concentration.

These data come from PMC11331505, “Binding Behavior of Human Hepatoma-Derived Growth Factor on SMYD1”.
